Blank lines part the entries; values can stand above or below the molecule they belong to.
Experiments:
mATGL [1] = experiment: TG hydrolase activity, E. coli expressed mATGL, CGI-58 activated, hG0S2 truncations (Fig. 1C-E); format: biochemical, mouse; conditions: mATGL E. coli extract (50 μg), 2.5 μg purified mCGI-58, 30 μg lysate of E. coli expressing hG0S2 variant, [3H]triolein, triplicates
Method: Protein concentrations were determined as described below.
FIGURE 1. Minimal sequence requirements of human G0S2 for ATGL inhibition. A, graphical representation of full-length and shortened versions of hG0S2, those capable of inhibiting ATGL activity are illustrated in black. The largely hydrophobic sequence stretch from Val-28 to Met-42 is depicted in light gray. B–E, activity assays were performed in the presence of CGI-58 as indicated by an asterisk (ATGL*). G0S2 and variants thereof were expressed in E. coli and added as cell lysates. Overexpressed mATGL from E. coli lysates was used for all assays with the exception of the assay shown in B. B, inhibition of TG hydrolase activity of mATGL containing COS-7 cell extracts by WT and C-terminally truncated hG0S2 variants. C, inhibition of TG hydrolase activity of mATGL by WT and C-terminally truncated hG0S2 variants. D, inhibition of TG hydrolase activity of mATGL by WT hG0S2 and variants with N-terminal deletions. E, effect of different N- and C-terminal truncations in hG0S2 on mATGL activity. The fusion tag smt3 is shown as control.

ATGL [2] = conditions: cited from earlier work
Text: Extensive research on the physiological role of ATGL has identified complex regulatory mechanisms for its activity on the transcriptional and post-translational level ([12], [13]). Direct protein-protein interaction of ATGL with the protein comparative gene identification 58 (CGI-58) increases ATGL activity up to 20-fold ([14]). Inhibition of ATGL due to direct interaction with the small, 103-amino acid protein G0/G1 switch gene 2 (G0S2) was discovered in 2010 and confirmed using human and murine proteins ([15][–][21]). The highest G0S2 expression is found in adipose tissues, but it is also pr ... || Activation of ATGL by CGI-58 is considered as fasting response upon β-adrenergic stimulation and phosphorylation of PKA ([12]). Recent studies have strengthened the role of G0S2 as the so-called master regulator of basal and stimulated lipolysis ([27]). mRNA levels of G0S2 respond strongly to hormonal stimuli, yet the dose-dependent inhibition of ATGL by G0S2 itself is reported to be independent of phosphorylation events ([18], [20], [21], [28], [29]). Thus, regulation of the expression levels of G0S2, and consequently the protein concentration, resembles a potent mean to regulate lipid mobili ... || Next, we investigated the specificity of the peptide hGW2052. ATGL and HSL together account for more than 95% of intracellular TG hydrolase activity in white adipose tissue (WAT) ([48]). […]

ATGL [3] = conditions: cited from earlier work; remark: listed apart in the source
Text: Activation of ATGL by CGI-58 is considered as fasting response upon β-adrenergic stimulation and phosphorylation of PKA ([12]). Recent studies have strengthened the role of G0S2 as the so-called master regulator of basal and stimulated lipolysis ([27]). mRNA levels of G0S2 respond strongly to hormonal stimuli, yet the dose-dependent inhibition of ATGL by G0S2 itself is reported to be independent of phosphorylation events ([18], [20], [21], [28], [29]). Thus, regulation of the expression levels of G0S2, and consequently the protein concentration, resembles a potent mean to regulate lipid mobili ... || Structural knowledge on ATGL is very limited. It is predicted to exert lipolytic activity via a catalytic dyad that resides in the patatin domain within the N-terminal half of the lipase ([7], [50]). […] In contrast, Atglis ...

mATGL [4] = target: mATGL (Mus musculus, UniProt Q8BJ56); experiment: TG hydrolase activity of CGI-58-stimulated mATGL (mATGL*) expressed in E. coli; conditions: read-out: half-maximal inhibitory concentration (IC50), CGI-58-stimulated ATGL; mATGL from E. coli (25 μg lysate protein) with 2.5 μg mCGI-58; [3H]triolein substrate; triplicates; Fig. 2E (hGW2052), 2F (WT hG0S2)
Sequence of mATGL (Mus musculus, UniProt Q8BJ56) (Q8BJ56 whole entry): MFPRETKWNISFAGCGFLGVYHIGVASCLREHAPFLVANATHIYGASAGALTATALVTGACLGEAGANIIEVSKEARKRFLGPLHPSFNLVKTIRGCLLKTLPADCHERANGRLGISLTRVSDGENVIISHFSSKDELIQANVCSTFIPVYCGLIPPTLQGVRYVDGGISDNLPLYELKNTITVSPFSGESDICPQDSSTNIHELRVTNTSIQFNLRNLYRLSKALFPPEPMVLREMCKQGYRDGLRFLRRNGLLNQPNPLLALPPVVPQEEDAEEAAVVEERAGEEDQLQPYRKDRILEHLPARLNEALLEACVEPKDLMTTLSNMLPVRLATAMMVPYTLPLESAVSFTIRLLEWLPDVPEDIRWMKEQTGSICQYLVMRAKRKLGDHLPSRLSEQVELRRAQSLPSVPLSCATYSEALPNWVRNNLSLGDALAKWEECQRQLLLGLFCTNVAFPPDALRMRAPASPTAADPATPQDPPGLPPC
Sequence of mATGL (Mus musculus, UniProt Q8BJ56) (Q9DBL9 whole entry partner): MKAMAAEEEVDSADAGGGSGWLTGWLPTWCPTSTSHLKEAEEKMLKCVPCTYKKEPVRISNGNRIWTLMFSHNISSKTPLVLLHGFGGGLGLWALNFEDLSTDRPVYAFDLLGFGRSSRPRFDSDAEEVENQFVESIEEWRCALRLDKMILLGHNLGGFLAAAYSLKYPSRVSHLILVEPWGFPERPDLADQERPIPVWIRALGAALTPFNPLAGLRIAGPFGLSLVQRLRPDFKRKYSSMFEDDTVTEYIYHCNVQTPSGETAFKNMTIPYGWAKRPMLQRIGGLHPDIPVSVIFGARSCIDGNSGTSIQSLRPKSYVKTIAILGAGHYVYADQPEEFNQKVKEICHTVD
Method: The peptides were dissolved in 100% DMSO, and concentrations were determined via the absorbance at 280 nm. The final DMSO concentration in the activity assay was ≤1%. The control peptide was prepared the same way.
TG hydrolase activity assay was performed as described ([45]). To screen for the inhibitory capacity of various hG0S2 truncations, 30 μg of protein of cell lysates were incubated with the [^3H]triolein substrate together with 50 μg of cell extract of Strep-mATGL (or COS-7-mATGL) and 2.5 μg of purified mCGI-58. As a control, lysates of the His6-Smt tag were incubated under the same conditions. […] TG substrate was prepared with 1.67 mM triolein, 10 μCi/ml [9,10-^3H]triolein (PerkinElmer Life Sciences), and 190 μM phosphatidylcholine/phosphatidylinositol (3:1) (Sigma) and diluted to the respective concentrations after sonication. Assays with CGI-58 co-activated ATGL were performed on a smaller scale. […] Lysates using LacZ-expressing cells were used as controls. The reaction was terminated by adding 650 μl of methanol/chloroform/heptane (10:9:7) and 200 μl of 100 mM potassium carbonate buffer, pH 10.5 (adjusted with boric acid). The radioactivity in 200 μl of the upper phase (450 μl in total) was determined by liquid scintillation counting.

B1: hG0S2_27–103: N-terminally truncated hG0S2 until residue Tyr-27 (protein, UniProt P27469 27-103, looked up, fragment)
chain: YVLGSVLALFGVVLGLMETVCSPFTAARRLRDQEAAVAELQAALERQALQKQALQEKGKQQDTVLGGRALSNRQHAS
- inhibition of TG hydrolase activity (result in words) (mATGL [1]): fully inhibit ATGL activity
- inhibition of TG hydrolase activity (result in words) (mATGL [1]; listed as Tyr-27–Ser-103): fully able to inhibit ATGL

B2: CGI-58: comparative gene identification 58, protein co-activator of ATGL (protein, UniProt Q8WTS1 2-349, looked up)
1-acylglycerol-3-phosphate …: AAEEEEVDSADTGERSGWLTGWLPTWCPTSISHLKEAEEKMLKCVPCTYKKEPVRISNGNKIWTLKFSHNISNKTPLVLLHGFGGGLGLWALNFGDLCTNRPVYAFDLLGFGRSSRPRFDSDAEEVENQFVESIEEWRCALGLDKMILLGHNLGGFLAAAYSLKYPSRVNHLILVEPWGFPERPDLADQDRPIPVWIRALGAALTPFNPLAGLRIAGPFGLSLVQRLRPDFKRKYSSMFEDDTVTEYIYHCNVQTPSGETAFKNMTIPYGWAKRPMLQRIGKMHPDIPVSVIFGARSCIDGNSGTSIQSLRPHSYVKTIAILGAGHYVYADQPEEFNQKVKEICDTVD
- increase of ATGL activity (ATGL [2]; direct protein-protein interaction with ATGL, ref [14]): up to 20 fold

B3: G0S2 truncated after residue Gly-30: Truncation of G0S2 after residue Gly-30 (N-terminal) (protein, UniProt P27469 30-103, looked up, fragment)
chain: GSVLALFGVVLGLMETVCSPFTAARRLRDQEAAVAELQAALERQALQKQALQEKGKQQDTVLGGRALSNRQHAS
- inhibition of TG hydrolase activity (result in words) (mATGL [1]): complete loss of the capacity to inhibit ATGL

B4: G0S2 Met-1–Gln-73: truncated variant of G0S2 encompassing the residues Met-1–Gln-73 (protein, UniProt P27469 1-73, looked up, fragment)
chain: METVQELIPLAKEMMAQKRKGKMVKLYVLGSVLALFGVVLGLMETVCSPFTAARRLRDQEAAVAELQAALERQ
- inhibition of ATGL (in words) (ATGL [2]; truncated/deleted G0S2 variants, ref [20]): inhibits the enzyme
- interaction with ATGL (ATGL [3]; ref [20]): interacts with ATGL

- IC50 (mATGL [4]): 19 nM
B5: hG0S2: full-length human G0S2, 103-amino acid protein, expressed in E. coli (protein)
chain: METVQELIPLAKEMMAQKRKGKMVKLYVLGSVLALFGVVLGLMETVCSPFTAARRLRDQEAAVAELQAALERQALQKQALQEKGKQQDTVLGGRALSNRQHAS
modifications: left off: His6, N-terminal, cleaved | Smt, N-terminal, cleaved
notes: full-length human G0S2, 103-amino acid protein, expressed in E. coli
- site of interaction with ATGL (ATGL [3]; ref [15]): interacts with the N-terminal catalytic domain of ATGL

Reference: PMC4239610, “A Peptide Derived from G0/G1 Switch Gene 2 Acts as Noncompetitive Inhibitor of Adipose Triglyceride Lipase” (The Journal of Biological Chemistry, 2014)
